For assay [1], the target named is T1, hTfR1 (recombinant, construct not specified) (human, UniProt P02786 89-760, limits assumed).
T1 construct: also called biotinylated hTfR1
The assay can be described thus: BLI: IgG captured from hybridoma supernatant on anti-mouse capture sensors, 250 nM hTfR1 in solution, 120 s association, 90 s dissociation. On the procedure: Next, sensors with immobilized IgGs were briefly washed for 10 s before incubation in running buffer to establish a baseline signal. […] All proteins were diluted in running buffer. Target dissociation was measured by incubating the biosensors in running buffer for 90 s.
(In general: BLI is a label-free optical method that tracks binding on a fibre tip over time.)

The target in assay [2] is T2, ectodomain of human TfR1 (His10-hTfR1; SEQ ID NO:110) (human, UniProt P02786 89-760).
T2 construct: also called ectodomain of hTfR1
The assay can be described thus: indirect ELISA: plate coated with 1 µg/ml hTfR1 ectodomain, mouse IgG titrated, anti-mouse IgG-HRP; x axis printed as 'TfR (ng/ml)'. The method, then: (§1) In the ELISA experiment, human, mouse or three different chimeric TfR1 receptors were used to coat ELISA plates (FIGS. 30A-30E). The ELISA protocol was slightly modified as follows from the indirect ELISA described in Example 15. […] The coated plates were then blocked. Dilution series of mouse IgG of the analyzed antibodies were prepared in PBS and incubated on the ELISA plates. Unbound antibodies were then washed off before incubating wells with a HRP-conjugated secondary, anti-mouse-IgG for 1 h. Plates were then washed again before addition of HRP substrate TMB for development and detection of antibody binding to the wells. TMB development was stopped by adding 0.5 M H₂SO₄ to the wells and ELISA responses measured as the OD at 450 nm in an ELISA plate reader.
Background: In an ELISA, binding on a coated surface is turned into a signal by an enzyme label.

Assay [3] has as its target T3, h/m helical domain chimera (SEQ ID NO:113) (human/mouse chimera, UniProt Q62351 90-763 (mouse entry)).
T3 construct: also called chimeric TfR1 consisting of human helical domain grafted on mouse TfR1 ectodomain
T3 chain: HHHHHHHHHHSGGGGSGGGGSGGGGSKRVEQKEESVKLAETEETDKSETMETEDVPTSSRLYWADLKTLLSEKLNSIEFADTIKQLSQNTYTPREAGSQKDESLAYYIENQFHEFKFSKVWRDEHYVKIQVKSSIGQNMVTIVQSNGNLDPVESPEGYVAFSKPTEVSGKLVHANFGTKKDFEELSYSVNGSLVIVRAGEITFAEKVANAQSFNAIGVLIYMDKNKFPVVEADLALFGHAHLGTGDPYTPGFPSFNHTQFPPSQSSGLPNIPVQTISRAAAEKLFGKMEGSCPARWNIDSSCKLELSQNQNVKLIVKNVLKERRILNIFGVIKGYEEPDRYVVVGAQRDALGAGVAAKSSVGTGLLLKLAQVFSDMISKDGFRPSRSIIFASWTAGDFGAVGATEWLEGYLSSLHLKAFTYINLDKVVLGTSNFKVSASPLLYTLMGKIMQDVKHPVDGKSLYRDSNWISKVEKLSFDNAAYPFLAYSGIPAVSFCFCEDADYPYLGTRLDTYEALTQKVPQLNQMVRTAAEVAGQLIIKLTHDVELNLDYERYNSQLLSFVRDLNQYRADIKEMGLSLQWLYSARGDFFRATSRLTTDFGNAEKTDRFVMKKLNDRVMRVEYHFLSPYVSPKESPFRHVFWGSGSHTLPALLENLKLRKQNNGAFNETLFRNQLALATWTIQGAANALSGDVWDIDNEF
Briefly: indirect ELISA: plate coated with 1 µg/ml h/m helical domain chimera, mouse IgG titrated, anti-mouse IgG-HRP; x axis printed as 'TfR (ng/ml)'. On the procedure:
as §1

The target in assay [4] is T4, His10-hTfR1 (SEQ ID NO:109) (human, UniProt P02786 90-760).
T4 construct: Recombinant, HEK293; also called His-tagged hTfR1; His-tagged hTfR
Briefly: ELISA, hybridoma supernatant.

Assay [5] deals with T5, h/m apical domain chimera (SEQ ID NO:112) (human/mouse chimera).
T5 construct: also called chimeric TfR1 consisting of human apical domain grafted on mouse TfR1 ectodomain
T5 chain: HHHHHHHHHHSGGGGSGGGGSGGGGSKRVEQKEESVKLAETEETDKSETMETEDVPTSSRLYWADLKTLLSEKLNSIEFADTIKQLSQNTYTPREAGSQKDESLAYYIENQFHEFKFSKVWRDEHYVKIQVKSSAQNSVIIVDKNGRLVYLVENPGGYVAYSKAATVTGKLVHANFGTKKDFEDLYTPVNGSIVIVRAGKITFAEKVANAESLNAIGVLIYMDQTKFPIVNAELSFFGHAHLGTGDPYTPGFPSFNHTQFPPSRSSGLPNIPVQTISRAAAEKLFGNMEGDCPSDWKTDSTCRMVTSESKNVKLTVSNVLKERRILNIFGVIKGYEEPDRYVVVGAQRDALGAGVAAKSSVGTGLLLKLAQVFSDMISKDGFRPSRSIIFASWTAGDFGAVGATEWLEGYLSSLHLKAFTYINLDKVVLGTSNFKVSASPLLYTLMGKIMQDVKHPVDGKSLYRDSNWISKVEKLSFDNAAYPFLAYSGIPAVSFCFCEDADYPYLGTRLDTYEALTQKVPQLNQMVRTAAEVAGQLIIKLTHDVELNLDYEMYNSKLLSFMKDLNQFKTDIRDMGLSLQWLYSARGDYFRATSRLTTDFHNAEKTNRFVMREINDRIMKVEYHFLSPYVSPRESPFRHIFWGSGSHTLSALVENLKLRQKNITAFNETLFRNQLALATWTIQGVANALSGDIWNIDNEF
The assay can be described thus: indirect ELISA: plate coated with 1 µg/ml h/m apical domain chimera, mouse IgG titrated, anti-mouse IgG-HRP; x axis printed as 'TfR (ng/ml)'. The method, then:
Plasma samples serially diluted from a starting dilution of 1/450 or hybridoma supernatants diluted 1/2 were added to the plates (50 μl/well; dilution buffer: PBS with 0.1% BSA and 0.05% TWEEN®-20) and incubated for 2 h at room temperature and then the plates were washed four times. […] After another wash (as above), 50 μl/well TMB substrate (K-Blue® Aqueous, Neogen) was added, and the reaction was stopped after 10-15 min with 50 μl/well of 0.5 M H₂SO₄. The optical density at 450 nm was read using a plate reader (Tecan). The endpoint titers were defined as the dilution above the average of the blank wells (background) plus 3 standard deviations of the blank wells.
as §1

The target of another assay is T6, AβpE11-40 monomer (UniProt P05067 682-711, pyroglutamate at position 11 (N-terminal residue)).
T6 construct: range 11-40 (Aβ numbering)
T6 peptide (looked up): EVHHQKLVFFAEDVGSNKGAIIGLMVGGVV
Briefly: inhibition ELISA, antigen titrated in solution, AβpE3-40 coat. On the procedure: (§2) For binding to Aβ1-40 and AβpE11-40, the positive control 4G8 (Covance #SIG-39320, epitope: amino acids 17-24 of Aβ) was included. The recombinant antibodies were incubated at a fixed concentration (0.05 μg/ml) with titrating concentrations of the different Aβ antigens. After incubation for 45 min at 900 rpm to reach equilibrium, the antibody-Aβ samples were added to a blocked and washed ELISA plate with an AβpE3-40 coat (0.5 μM). The samples were incubated on the plate for 25 min without shaking followed by washing, incubation with detection antibody, another washing step and finally incubation with alkaline phosphatase substrate.

The next assay addresses T7, Aβ1-40 monomer (UniProt P05067 672-711).
T7 construct: range 1-40 (Aβ numbering)
The description is as above. The method, then: as §2

Assay [6] concerns the target T8, AβpE3-42 protofibrils (UniProt P05067 674-713, pyroglutamate at position 3 (N-terminal residue)).
T8 construct: range 3-42 (Aβ numbering); Soluble aggregates made from AβpE3-42 peptide, purified in the void peak of SEC; also called AβpE3-42 PF
The assay is described as above. The method, then:
as §2

Assay [7] has as its target T9, AβpE3-40 monomer (UniProt P05067 674-711, pyroglutamate at position 3 (N-terminal residue)).
T9 construct: range 3-40 (Aβ numbering); Synthetic peptide (Bachem/Anaspec), verified monomeric by SEC; also called monomeric AβpE3-40
The assay is described as above. The method, then:
as §2

The target in a further assay is T10, Aβ1-28 monomer (UniProt P05067 672-699).
T10 construct: range 1-28 (Aβ numbering)
Briefly: SPR, antibody immobilised. The method, then: Affinity and specificity evaluation and KD determination by surface plasmon resonance: Binding interactions between antigens and antibodies were evaluated by SPR using a Biacore 8K instrument (Cytiva) according to standard procedures. […] Additionally, the specificity towards different N-truncated forms of Aβ (Aβ2-28, Aβ3-28, Aβ4-28 and AβpE11-28 monomers) was evaluated.
(§3) Single cycle kinetics with the antibodies immobilized on a CM5 chip was used to measure the binding of the antibodies to the different monomers (AβpE3-40, AβpE11-28, Aβ1-28, Aβ2-28, Aβ3-28 and Aβ4-28). For the measurements, 5 μg/ml of analyte antibody was immobilized on the chip. […] Regeneration of the surface between cycles was done by injecting 30 μl 3 M MgCl₂. The binding data was fitted to a 1:1 interaction model.
(§4) In all SPR experiments, 1×HBS-EP+ (Cytiva, cat. no. BR100669) was used as running buffer and to dilute antibodies and target antigens. Experiments were performed at 25° C.

Another assay has as its target T11, Aβ1-42 monomer (UniProt P05067 672-713).
T11 construct: range 1-42 (Aβ numbering)
The assay can be described thus: ELISA: Aβ monomer captured on a polyclonal anti-Aβ42 coat, hybridoma supernatant diluted 1/243, anti-mouse IgG-HRP.

The next assay addresses T12, Aβ2-42 monomer (UniProt P05067 673-713).
T12 construct: range 2-42 (Aβ numbering)
Described as above.

The target of assay [8] is T8, AβpE3-42 protofibrils. The assay can be described thus: SPR, protofibrils immobilised, antibody injected, 1:1 fit, apparent. On the procedure: (§5) Single cycle kinetics was also used to measure binding of the antibodies to AβpE3-42 protofibrils. […] For binding to AβpE3-42 protofibrils, the antibodies were injected over the chip using a 3-fold dilution series in five steps starting at 700 nM, using 2 min injection of every antibody concentration and a 60 min dissociation time. Regeneration of the surface between cycles was done by injecting 30 μl 10 mM glycine-HCl pH 1.7. The binding data was fitted to a 1:1 interaction model.
as §4
(SPR reads the build-up and loss of mass on a sensor chip optically.)

The target in assay [9] is T8, AβpE3-42 protofibrils. The assay can be described thus: SPR, protofibrils immobilised, antibody injected, 1:1 fit, apparent; binding to AβpE3-42 protofibrils (not monomer); KD in pM. On the procedure: as §5, §4
A further assay addresses T13, Aβ4-28 monomer (UniProt P05067 675-699).
T13 construct: range 4-28 (Aβ numbering)
The assay can be described thus: SPR, antibody immobilised, monomer injected, 1:1 fit. The method, then:
as §3, §4

Assay [10] concerns the target T9, AβpE3-40 monomer. Described as above. On the procedure:
as §3, §4

The target of a further assay is T14, AβpE11-28 monomer (UniProt P05067 682-699, pyroglutamate at position 11 (N-terminal residue)).
T14 construct: range 11-28 (Aβ numbering)
T14 peptide (looked up): EVHHQKLVFFAEDVGSNK
The assay can be described thus: SPR, antibody immobilised. The method, then: as §3, §4

In a further assay the target is T15, Aβ2-28 monomer (UniProt P05067 673-699).
T15 construct: range 2-28 (Aβ numbering)
The assay can be described thus: SPR, antibody immobilised. On the procedure:
as §3, §4

For another assay, the target named is T16, Aβ3-28 monomer (UniProt P05067 674-699).
T16 construct: range 3-28 (Aβ numbering)
The assay can be described thus: SPR, antibody immobilised. The method, then: as §3, §4

Data on two molecules can be found in patent US20250388664A1 (BIOARCTIC, published 2025).

T13 sequence (P05067 675-699): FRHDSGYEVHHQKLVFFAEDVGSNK
T8 sequence (P05067 674-713): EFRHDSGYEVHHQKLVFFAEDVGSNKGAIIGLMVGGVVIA
T12 sequence (P05067 673-713): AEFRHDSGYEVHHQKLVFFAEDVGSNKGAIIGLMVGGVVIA
T16 sequence (P05067 674-699): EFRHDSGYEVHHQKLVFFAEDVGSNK
T15 sequence (P05067 673-699): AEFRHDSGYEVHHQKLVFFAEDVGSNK
T10 sequence (P05067 672-699): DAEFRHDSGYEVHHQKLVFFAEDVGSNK
T11 sequence (P05067 672-713): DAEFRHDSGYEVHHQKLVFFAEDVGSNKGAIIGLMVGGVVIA

B1: 37D10 (antibody, V domains shown)
VH: QVQLQQSGAELVRPGTSVKISCKASGYAFTNYWLGWVKQRPGHGLEWIGDIFPGSDNTYYNEKFKGKATLTADKSSSTAYMQLSSLASEDSAVYFCARSGNFYAMDYWGQGTSVTVSS
VL: ENVLTQSPAIMSASPGEKVTMTCSASSSVNYMNWYQQKSSTFPKLWIYDTSKLASGVPGRFSGSGSGKFYSLTISSMEAEDVATYYCFQGSGYPFTFGSGTKLEIK
notes: also called mouse antibody 37D10; clone 37D10
B1: the binding result in assay [1] is given as “binds”; in assay [2], “binds”; in assay [3], “no binding (tested: about 600 ng/ml)”; in [4] it was “binds”; in [5], “no binding (tested: about 600 ng/ml)”.

B2: Pyr7.1 (antibody, V domains shown)
VH: KVQLQQSGPELVKPGTSIKMSCKTSGYSFTGYTLNWVKQSPGKNPEWIGLINPYNGITTYNPKFMGKATLTVDKSSSTAYMELLSLTSEDSAVYYCSREGNWEGVYWGQGTLVTVSA
VL: not shown
notes: Murine anti-AβpE3 antibody; also called recombinant antibody Pyr7.1; hybridoma clone Pyr7.1
For B2, the IC50 (as a rule, the point on the concentration scale where inhibition reaches its midpoint) with AβpE11-40 monomer was greater than 5000 nM; in the assay with Aβ1-40 monomer, greater than 5000 nM; with AβpE3-42 protofibrils [6], 12.8 nM; in the assay with AβpE3-40 monomer [7], 2.85 nM. In addition, the binding result in the assay with Aβ1-28 monomer is “no binding (tested: 2500 nM)”; in the assay with Aβ1-42 monomer, “no binding”; with Aβ2-42 monomer it was “no binding”; with AβpE11-28 monomer it was “no binding (tested: 2500 nM)”; in the assay with Aβ2-28 monomer, “no binding (tested: 2500 nM)”; with Aβ3-28 monomer, “no binding (tested: 2500 nM)”. The figures for the koff in the assay with AβpE3-42 protofibrils [8], with Aβ4-28 monomer and with AβpE3-40 monomer [10] were 2.29e-06 s⁻¹, 0.454 s⁻¹ and 0.000122 s⁻¹, respectively. The kon (usually the second-order rate constant of association) with AβpE3-42 protofibrils [8] worked out at 78200 M⁻¹ s⁻¹; with Aβ4-28 monomer, 102000 M⁻¹ s⁻¹; with AβpE3-40 monomer [10] it was 53200 M⁻¹ s⁻¹. The Kd with AβpE3-42 protofibrils [9] is 0.031 nM; with Aβ4-28 monomer, 8310 nM; in the assay with AβpE3-40 monomer [10], 2.3 nM.
